The values below come from publication PMC3470408.

This series relates to CC(C)=CCOP(=O)(O)OP(=O)(O)O. Put plainly: purified protein. To be noted: pH 7.0; 37.0 °C.

With “Rv0562 (Mycobacterium tuberculosis H37Rv)”, the Km stood at 5 ± 2 µM.
